Target: RFX5 DBD (Homo sapiens) (UniProt P48382)
Experiment: EMSA
Settings: KD values only in figure; hmC/mC CpG; EMSA: 20 mM HEPES, 30 mM KCl, 1 mM EDTA, 1 mM (NH4)2SO4, 0.2% Tween 20, 1 mM DTT, 5 uM dA:dT competitor, 2 nM DNA, 20 min, 21 C (pH not stated); pulldown: 50 mM

Sequence of RFX5 DBD (Homo sapiens) (P48382 75-168): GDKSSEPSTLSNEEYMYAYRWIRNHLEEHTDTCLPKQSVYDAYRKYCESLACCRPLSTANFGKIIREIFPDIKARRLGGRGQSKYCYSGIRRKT

X-box 1 probe hmC/mC
binding signal (fold weaker than mC/mC (KD)): 2.5

Source: paper PMC13042984
